Here are results for one substance from doi:10.1101/2025.05.15.25327633.

The target in this experiment is Platelet-factor 4 (Human CXCL4) (human). In words: cross-linking + AUC.

The term stoichiometry N denotes a count of units in the complex or per binding partner. As for “Platelet-factor 4 (Human CXCL4) (natural protein)”, the percent of PF4 present as tetramers was determined as 81.2% and the stoichiometry N amounted to 4.
